We go through one molecule from patent US20250242041A1 (Seagen, published 2025).

The experiment deals with T1, human αvβ6 on 293F:huβ6 cells (human, UniProt P06756 31-1048; P18564 22-788).
T1 construct: whole, on cells; also called HEK293F:huβ6
Briefly: saturation binding by flow cytometry on 293F:huβ6 cells; also confirmed by competition binding. How it is done:
0.1×10⁶ antigen expressing cells were aliquoted in each well of a 96-well v-bottom plate on ice. The cells were incubated for 1 hour with 2 nM AlexaFluor-647 labeled humanized 2A2 HCLG and increasing concentrations (from 4 pM-1 uM) of unlabeled humanized 2A2 HCLG antibody and h2A2-Mdpr-PEG(12)-gluc-MMAE(8) in buffer (Tris-buffered saline, 2% fetal bovine serum, 0.5 mM MnCl₂, 0.02% NaN₃). Cells were pelleted and washed 3 times with TBS/FBS. The cells were pelleted and resuspended in 125 uL of TBS/FBS. Fluorescent signal of binding was detected using a Becton Dickinson Biosciences LSR II (San Jose, CA). Percent of saturated fluorescent signal was used to determine percent labeled humanized 2A2 antibody bound to cells and to subsequently extrapolate the EC50 by fitting the data to a sigmoidal dose-response curve with variable slope using GraphPad Software (LaJolla, CA).
0.1×10⁶ antigen expressing cells were aliquoted per well into a 96-well v-bottom plate. m2A2 and h2A2 HCLG were directly labeled with AlexaFluor-647 and added to cells at concentrations ranging from 6 pM-340 nM in buffer (Tris-buffered saline, 2% fetal bovine serum, 0.5 mM MnCl₂, 0.02% NaN₃). […] Fluorescent signal of binding was detected using a Becton Dickinson Biosciences LSR II (San Jose, CA). The EC50 was calculated using GraphPad Software (LaJolla, CA).
(A flow cytometer gives signals particle by particle.)

T1 sequence (P06756 31-1048, chain 1 of 2): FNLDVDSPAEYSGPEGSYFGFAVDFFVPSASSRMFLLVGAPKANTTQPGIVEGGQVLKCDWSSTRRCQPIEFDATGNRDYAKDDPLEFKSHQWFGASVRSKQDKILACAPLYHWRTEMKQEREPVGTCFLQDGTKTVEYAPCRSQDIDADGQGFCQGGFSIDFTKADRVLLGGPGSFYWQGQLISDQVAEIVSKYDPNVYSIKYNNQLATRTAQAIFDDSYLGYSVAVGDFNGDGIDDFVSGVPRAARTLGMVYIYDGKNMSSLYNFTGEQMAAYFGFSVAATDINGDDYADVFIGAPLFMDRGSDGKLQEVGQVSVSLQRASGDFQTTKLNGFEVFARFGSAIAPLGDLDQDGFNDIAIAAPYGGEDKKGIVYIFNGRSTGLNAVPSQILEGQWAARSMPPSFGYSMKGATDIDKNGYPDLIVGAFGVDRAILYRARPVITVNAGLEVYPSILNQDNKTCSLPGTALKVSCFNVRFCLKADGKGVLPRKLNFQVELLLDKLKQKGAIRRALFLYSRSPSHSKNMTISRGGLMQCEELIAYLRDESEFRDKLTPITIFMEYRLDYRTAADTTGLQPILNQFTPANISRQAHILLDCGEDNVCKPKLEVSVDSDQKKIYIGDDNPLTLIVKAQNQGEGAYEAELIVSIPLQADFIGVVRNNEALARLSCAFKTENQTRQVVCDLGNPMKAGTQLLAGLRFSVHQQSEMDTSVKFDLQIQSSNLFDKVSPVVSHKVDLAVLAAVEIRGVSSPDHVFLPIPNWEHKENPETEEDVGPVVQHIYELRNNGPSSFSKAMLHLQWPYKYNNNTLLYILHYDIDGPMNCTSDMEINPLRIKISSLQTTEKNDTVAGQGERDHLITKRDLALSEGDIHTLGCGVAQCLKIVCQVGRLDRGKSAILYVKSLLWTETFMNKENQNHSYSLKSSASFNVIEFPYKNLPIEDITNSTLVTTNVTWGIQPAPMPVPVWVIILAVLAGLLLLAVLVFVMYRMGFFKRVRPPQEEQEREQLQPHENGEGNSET
T1 sequence (P18564 22-788, chain 2 of 2): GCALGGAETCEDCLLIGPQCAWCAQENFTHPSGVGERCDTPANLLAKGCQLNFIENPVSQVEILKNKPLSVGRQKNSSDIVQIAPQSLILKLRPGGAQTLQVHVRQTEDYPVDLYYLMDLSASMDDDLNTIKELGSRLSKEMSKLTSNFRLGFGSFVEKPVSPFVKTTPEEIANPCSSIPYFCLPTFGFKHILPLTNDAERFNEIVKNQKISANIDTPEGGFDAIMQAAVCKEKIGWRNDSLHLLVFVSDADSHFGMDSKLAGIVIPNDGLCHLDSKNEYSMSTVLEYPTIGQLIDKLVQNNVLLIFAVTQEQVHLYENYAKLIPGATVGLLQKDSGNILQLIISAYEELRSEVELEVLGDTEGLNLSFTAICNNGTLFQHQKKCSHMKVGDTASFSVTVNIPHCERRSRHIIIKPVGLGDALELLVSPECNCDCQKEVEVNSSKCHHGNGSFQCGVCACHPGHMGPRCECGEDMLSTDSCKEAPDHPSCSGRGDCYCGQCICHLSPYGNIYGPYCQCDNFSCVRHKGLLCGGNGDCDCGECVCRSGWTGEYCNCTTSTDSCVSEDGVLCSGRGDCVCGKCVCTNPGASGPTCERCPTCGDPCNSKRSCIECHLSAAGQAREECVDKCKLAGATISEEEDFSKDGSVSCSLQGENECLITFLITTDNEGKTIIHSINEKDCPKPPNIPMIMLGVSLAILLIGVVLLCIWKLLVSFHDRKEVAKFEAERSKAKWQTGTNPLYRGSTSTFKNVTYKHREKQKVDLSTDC

B1: h2A2 HCLG humanized antibody (antibody, human IgG1, kappa, V domains shown)
VH: QFQLVQSGAEVKKPGASVKVSCKASGYSFTDYNVNWVRQAPGQGLEWIGVINPKYGTTRYNQKFKGRATLTVDKSTSTAYMELSSLRSEDTAVYYCTRGLNAWDYWGQGTLVTVSS
VL: DIQMTQSPSSLSASVGDRVTITCGASENIYGALNWYQQKPGKAPKLLIYGATNLEDGVPSRFSGSGSGRDYTFTISSLQPEDIATYYCQNVLTTPYTFGQGTKLEIKR
notes: Labelled with AlexaFluor-647 in the saturation assay; also called humanized 2A2 HCLG
For B1, the binding result is “binds”.
